According to paper doi:10.1101/2021.10.26.465098:
pKd: −log10 of the molar value.

Target: HAdV-C5, -D26 and -B35
Assay: SPR

human neutrophil protein 1 (HNP-1) (from UniProt P59665 65-94) (peptide)
pKd: 7.12 to 7.43
